Assay results: patent US20260125455A1 (CLEVELAND CLINIC FOUNDATION, published 2026)

B1: MoC601 HuG1KFab (Fab, V domains shown)
VH: QVQLQQSGAELVKPGASVKISCKASGYAFSDYWMNWVKQRPGKGLEWIGQIYPGDDDTNYNGKFKGKATLTADKSSSTAYMQLSSLTSEDSAVYFCAREGYYGYTYVEYFDVWGTGTTVTVSS
VL: QIVLTQSPAIMSVSPGEKVTLTCSASSSVSYMHWYQQKSGTSPKRWIYDTSKLASGVPARFSGSGSGTSYSLTISSMEAEDAATYYCQQWTSNPLTFGAGTKLELRR
notes: also called chimeric Fab; Fab molecule
B2: C601HFKI HuG4K (antibody, human IgG4 S228P, kappa)
heavy: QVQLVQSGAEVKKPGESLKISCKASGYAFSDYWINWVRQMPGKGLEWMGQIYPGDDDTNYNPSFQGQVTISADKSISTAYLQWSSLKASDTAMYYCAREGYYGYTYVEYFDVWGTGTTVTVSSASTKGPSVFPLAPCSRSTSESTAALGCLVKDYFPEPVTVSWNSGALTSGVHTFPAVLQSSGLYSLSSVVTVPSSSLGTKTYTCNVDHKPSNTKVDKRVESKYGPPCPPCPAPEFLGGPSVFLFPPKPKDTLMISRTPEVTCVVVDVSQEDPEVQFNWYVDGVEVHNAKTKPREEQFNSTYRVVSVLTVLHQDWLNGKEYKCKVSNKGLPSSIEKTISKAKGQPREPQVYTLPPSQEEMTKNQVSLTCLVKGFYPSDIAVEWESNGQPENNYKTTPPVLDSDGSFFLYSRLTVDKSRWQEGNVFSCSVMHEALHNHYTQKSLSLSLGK
light: EIVLTQSPATLSLSPGERATLSCRASSSVSYLHWYQQKPGQSPRLWIYDTSKRATGIPARFSGSGSGTDYTLTISSLEPEDFAVYYCQQWTSNPLTFGQGTKLEIKRTVAAPSVFIFPPSDEQLKSGTASVVCLLNNFYPREAKVQWKVDNALQSGNSQESVTEQDSKDSTYSLSSTLTLSKADYEKHKVYACEVTHQGLSSPVTKSFNRGEC
B3: C601HPKI HuG4K (antibody, human IgG4 S228P, kappa)
heavy: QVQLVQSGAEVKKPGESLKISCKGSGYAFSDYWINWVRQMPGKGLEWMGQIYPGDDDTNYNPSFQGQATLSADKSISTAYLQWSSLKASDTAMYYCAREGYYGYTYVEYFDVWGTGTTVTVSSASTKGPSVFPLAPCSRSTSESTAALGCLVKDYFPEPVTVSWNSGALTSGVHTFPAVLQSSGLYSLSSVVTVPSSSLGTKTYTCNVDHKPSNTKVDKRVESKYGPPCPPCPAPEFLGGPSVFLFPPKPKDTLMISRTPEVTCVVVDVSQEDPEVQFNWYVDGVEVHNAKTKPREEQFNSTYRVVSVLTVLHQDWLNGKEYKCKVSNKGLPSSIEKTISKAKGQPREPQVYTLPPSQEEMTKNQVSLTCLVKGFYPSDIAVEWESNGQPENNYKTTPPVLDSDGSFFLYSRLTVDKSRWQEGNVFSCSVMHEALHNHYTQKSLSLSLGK
light: B2 light

Columns and labels:
[1] = biological target: T1, human complement protein C6 (human, UniProt P13671 22-934); assay: ELISA, purified protein, anti-human IgG (Fab-specific) detection
T1 construct: also called human C6; C6 antigen
Method: The binding of the purified chimeric molecules, MoC601 HuG4K and MoC601 HuG1KFab, was also confirmed by ELISA, where the anti-human IgG (Fab-specific) secondary reagent was used. The control mouse antibody bound as previously (EC₅₀ 0.11 nM). The EC₅₀ for purified MoC601 HuG4K (0.27 nM) was similar to that obtained for the MoC601 HuG4K supernatant sample above. […] The EC₅₀ value for the Fab molecule (0.48 nM) was higher than for the antibody, which would be expected since the Fab is unable to bind bivalently to the antigen on the well. A C6-binding assay was also set up on the Octet RED384 instrument. […] However, MoC601 MoG1K could be stably loaded onto anti-mouse Fc (AMC) biosensors. Concentrations of the mouse and chimeric antibodies were adjusted to give similar levels of loading on to the AMC and […]

[2] = biological target: T1, human complement protein C6; assay: SPR (Biacore 8K)
Method: (§1) The kinetics of C6 binding was compared for the purified chimeric and lead humanized C601 using surface plasmon resonance (SPR, Biacore 8K). IgG were captured on a protein G sensor chip and binding of C6 measured using a three-fold concentration series of C6 from 0.03 nM-25 nM (FIG. 5). In a second experiment, a two-fold concentration series from 0.31 nM-20 nM C6 was used (FIG. 6). For all antibodies, binding of C6 occurred in a concentration-dependent manner and data could be fitted using a 1:1 model to calculate the association rate (kₒₙ), dissociation rates (kd) and affinity constant (KD). The kinetic data are shown in Table 5, which indicates only small differences between the parameters determined from the two independent experiments.
(§2) Binding ELISAs used Nunc Maxisorp 384-well plates, wells coated with C6, C5b,6 complex or C5 (Complement Technology Inc, TX) and goat anti-human IgG (Fab specific) peroxidase secondary antibodies (Sigma-Aldrich, A0293) for detection. For the thermal stability assay, IgG supernatants were diluted to their EC₈₀ concentration, incubated at different temperatures for 10 min and C6 binding measured by ELISA with the binding signal plotted against temperature. Kinetics of C6 binding were measured by capturing antibodies from supernatant samples using Protein G biosensors and performing a 20 min association step with 2.5 nM C6 and a 20 min dissociation step using the Octet RED96. Precise kinetic measurements were obtained by surface plasmon resonance (Biacore 8K, Cytiva). The IgG were captured on a protein G sensor chip. Binding of C6 measured using a three-fold concentration series of C6 from 0.03 nM-25 nM and data were fitted using a 1:1 model in two independent experiments.

[3] = biological target: human complement protein C5 (human, UniProt P01031 19-673; P01031 678-1676); assay: ELISA, C5-coated wells
Method: The 20 purified antibodies were tested by ELISA for their abilities to bind human complement proteins C5, C5b6 and C6. The antibodies were divided into two sets for this analysis. MoC601 HuG4K and HuG4K isotype controls were included alongside each set, as was C601HFKC4 HuG4K (aka 3713) expression supernatant from the original transfection as an additional positive control. In addition, three humanized antibodies (C601HFKC4 HuG4K, C601HPKI HuG4K and C601HPKC4 HuG4K) were included within both sets to allow better comparison between the plates. The antibodies all show specificity for C6 with no detectable binding to C5. All humanized antibodies bind to C6 and to C6 as part of the C5b6 complex. The lower plateaus of the C5b6 complex binding curves are explained by less C6 protein being available for binding when wells are coated with C5b6 complex as opposed to C6 alone. […] The EC₅₀ values are included in the figure but slightly different plateau levels observed for the antibodies are influencing the apparent EC₅₀ values. However, it was noted that the EC₅₀ values tended to be lower on the plates for the second set of antibodies. For this reason, a subset of the 20 antibodies was tested in a further ELISA for binding to C6 and C5b6 complex.
as §2

[4] = biological target: T1, human complement protein C6; assay: ELISA, C6-coated wells, large-scale purified antibody
[5] = biological target: T1, human complement protein C6; assay: C6-binding ELISA, A650 nm; sample 'PBS' (28 days at 37 C)
Method: (§3) For the serum stability assessment, samples of the purified candidate antibodies are normally incubated in mouse, human and cynomolgus serum at 37 C for 28 days and then tested in an antigen-binding ELISA. Since the anti-C6 antibodies are expected to bind to both human and cynomolgus C6 but not mouse C6, we anticipated that incubating in human or cynomolgus sera would reduce ELISA binding due to occupation of the antibody binding sites by C6 protein from the sera. Therefore, the chimeric and humanized antibodies were tested with human and mouse sera and with human sera from which the C6 protein has been depleted. The C6-binding ELISA was then used to compare the binding abilities of the C601 antibodies that had been incubated in the 3 different sera to antibody samples that were incubated in PBS at 37 C or kept at 4 C (non-incubated).
(§4) The Uncle instrument (Unchained Labs) was used to monitor unfolding via intrinsic fluorescence and aggregation by static light scattering across a temperature gradient to obtain melting temperatures (Tₘ). […] Isoelectric points were determined by capillary isoelectric focusing using a PA800+ (Beckman Coulter). […]

[6] = biological target: T1, human complement protein C6; assay: C6-binding ELISA, A650 nm; sample 'mouse serum' (28 days at 37 C)
Method: as §3, with “The C6-binding ELISA was then used to compare the binding abilities of the C601 antibodies that had been incubated in the 3 different sera to antibody samples that were incubated in PBS at 37 C or kept at 4 C (non-incubated).” left out
as §2, with “Precise kinetic measurements were obtained by surface plasmon resonance (Biacore 8K, Cytiva). The IgG were captured on a protein G sensor chip. Binding of C6 measured using a three-fold concentration series of C6 from 0.03 nM-25 nM and data were fitted using a 1:1 model in two independent experiments.” left out

[7] = biological target: T1, human complement protein C6; assay: C6-binding ELISA, A650 nm; sample 'PBS, non-incubated' (kept at 4 C)
Method: (§5) The C6-binding ELISA was then used to compare the binding abilities of the C601 antibodies that had been incubated in the 3 different sera to antibody samples that were incubated in PBS at 37 C or kept at 4 C (non-incubated).
as §2, with “Precise kinetic measurements were obtained by surface plasmon resonance (Biacore 8K, Cytiva). The IgG were captured on a protein G sensor chip.” left out
(§6) The Uncle instrument (Unchained Labs) was used to monitor unfolding via intrinsic fluorescence and aggregation by static light scattering across a temperature gradient to obtain melting temperatures (Tₘ). […] Isoelectric points were determined by capillary isoelectric focusing using a PA800+ (Beckman Coulter).

[8] = biological target: T1, human complement protein C6; assay: SPR (Biacore 8K), IgG on protein G chip, C6 0.03-25 nM 3-fold series, 1:1 fit
Method: as §1, §2

[9] = biological target: T1, human complement protein C6; assay: SPR (Biacore 8K), IgG on protein G chip, C6 0.31-20 nM 2-fold series, 1:1 fit
Method: as §1

[10] = biological target: T1, human complement protein C6; assay: C6-binding ELISA, A650 nm; sample 'C6-depleted human serum' (28 days at 37 C)
Method: as §3, with “The C6-binding ELISA was then used to compare the binding abilities of the C601 antibodies that had been incubated in the 3 different sera to antibody samples that were incubated in PBS at 37 C or kept at 4 C (non-incubated).” left out
as §2, with “Precise kinetic measurements were obtained by surface plasmon resonance (Biacore 8K, Cytiva). The IgG were captured on a protein G sensor chip. Binding of C6 measured using a three-fold concentration series of C6 from 0.03 nM-25 nM and data were fitted using a 1:1 model in two independent experiments.” left out

[11] = biological target: T1, human complement protein C6; assay: C6-binding ELISA, A650 nm; sample 'human serun' (human serum, 28 days at 37 C)
Method: as §3, with “The C6-binding ELISA was then used to compare the binding abilities of the C601 antibodies that had been incubated in the 3 different sera to antibody samples that were incubated in PBS at 37 C or kept at 4 C (non-incubated).” left out
as §2, with “Precise kinetic measurements were obtained by surface plasmon resonance (Biacore 8K, Cytiva). The IgG were captured on a protein G sensor chip. Binding of C6 measured using a three-fold concentration series of C6 from 0.03 nM-25 nM and data were fitted using a 1:1 model in two independent experiments.” left out

[12] = biological target: T1, human complement protein C6; assay: C6-binding ELISA, A650 nm; sample 'PBS' (28 days at 37 C) [cont.) D]
Method: as §3, with “The C6-binding ELISA was then used to compare the binding abilities of the C601 antibodies that had been incubated in the 3 different sera to antibody samples that were incubated in PBS at 37 C or kept at 4 C (non-incubated).” left out
as §2, with “Precise kinetic measurements were obtained by surface plasmon resonance (Biacore 8K, Cytiva). The IgG were captured on a protein G sensor chip. Binding of C6 measured using a three-fold concentration series of C6 from 0.03 nM-25 nM and data were fitted using a 1:1 model in two independent experiments.” left out

[13] = biological target: T1, human complement protein C6; assay: C6-binding ELISA, A650 nm; sample 'mouse serum' (28 days at 37 C) [cont.) D]
Method: as §3, §4

[14] = biological target: T1, human complement protein C6; assay: C6-binding ELISA, A650 nm; sample 'PBS, non-incubated' (kept at 4 C) [cont.) D]
Method: as §5
as §2, with “Precise kinetic measurements were obtained by surface plasmon resonance (Biacore 8K, Cytiva). The IgG were captured on a protein G sensor chip.” left out
as §6

[15] = biological target: T1, human complement protein C6; assay: C6-binding ELISA, A650 nm; sample 'C6-depleted human serum' (28 days at 37 C) [cont.) D]
Method: as §3, §4

[16] = biological target: T1, human complement protein C6; assay: C6-binding ELISA, A650 nm; sample 'human serun' (human serum, 28 days at 37 C) [cont.) D]
Method: as §3, §4

T1 sequence (P13671 22-934 limits assumed): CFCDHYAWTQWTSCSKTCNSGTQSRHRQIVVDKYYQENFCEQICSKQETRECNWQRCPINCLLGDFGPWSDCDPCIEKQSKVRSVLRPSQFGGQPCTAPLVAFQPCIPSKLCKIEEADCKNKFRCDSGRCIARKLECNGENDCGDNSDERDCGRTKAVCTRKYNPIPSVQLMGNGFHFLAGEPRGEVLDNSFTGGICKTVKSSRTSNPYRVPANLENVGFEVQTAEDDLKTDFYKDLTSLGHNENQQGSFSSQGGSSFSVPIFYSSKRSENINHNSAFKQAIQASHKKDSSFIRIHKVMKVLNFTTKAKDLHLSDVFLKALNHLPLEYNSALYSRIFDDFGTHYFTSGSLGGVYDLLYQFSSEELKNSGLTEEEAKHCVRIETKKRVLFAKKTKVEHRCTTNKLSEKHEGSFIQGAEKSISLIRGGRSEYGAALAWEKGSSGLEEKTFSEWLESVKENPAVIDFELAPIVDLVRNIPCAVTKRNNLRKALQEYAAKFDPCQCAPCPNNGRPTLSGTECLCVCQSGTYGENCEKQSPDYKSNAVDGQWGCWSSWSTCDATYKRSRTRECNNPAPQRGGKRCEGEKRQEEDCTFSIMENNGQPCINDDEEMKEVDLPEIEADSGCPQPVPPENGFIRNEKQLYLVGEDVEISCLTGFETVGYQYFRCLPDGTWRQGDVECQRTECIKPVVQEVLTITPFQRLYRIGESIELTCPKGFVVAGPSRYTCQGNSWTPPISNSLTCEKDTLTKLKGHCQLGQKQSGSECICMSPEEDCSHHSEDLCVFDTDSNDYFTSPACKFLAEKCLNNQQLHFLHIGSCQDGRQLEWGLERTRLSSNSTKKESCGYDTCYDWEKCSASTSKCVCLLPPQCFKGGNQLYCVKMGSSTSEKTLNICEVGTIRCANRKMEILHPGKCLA
human complement protein C5, sequence (P01031 19-673 limits assumed, chain 1 of 2): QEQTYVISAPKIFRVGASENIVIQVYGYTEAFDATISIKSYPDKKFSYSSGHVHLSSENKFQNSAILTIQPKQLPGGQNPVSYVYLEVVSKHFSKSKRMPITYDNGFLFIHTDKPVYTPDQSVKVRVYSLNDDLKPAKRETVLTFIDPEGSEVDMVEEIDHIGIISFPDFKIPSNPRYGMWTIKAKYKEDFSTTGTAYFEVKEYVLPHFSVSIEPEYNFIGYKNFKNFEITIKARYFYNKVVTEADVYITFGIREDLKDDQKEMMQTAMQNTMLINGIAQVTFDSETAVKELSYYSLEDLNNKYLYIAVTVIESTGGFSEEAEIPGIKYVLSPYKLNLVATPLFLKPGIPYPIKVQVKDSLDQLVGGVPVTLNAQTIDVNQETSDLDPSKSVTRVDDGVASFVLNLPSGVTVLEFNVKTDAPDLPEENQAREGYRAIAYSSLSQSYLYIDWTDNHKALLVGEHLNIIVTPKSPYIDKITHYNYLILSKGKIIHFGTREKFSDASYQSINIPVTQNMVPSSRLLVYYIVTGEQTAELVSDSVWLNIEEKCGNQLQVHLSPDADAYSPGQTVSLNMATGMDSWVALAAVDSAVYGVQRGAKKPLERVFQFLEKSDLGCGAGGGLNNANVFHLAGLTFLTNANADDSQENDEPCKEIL
human complement protein C5, sequence (P01031 678-1676 limits assumed, chain 2 of 2): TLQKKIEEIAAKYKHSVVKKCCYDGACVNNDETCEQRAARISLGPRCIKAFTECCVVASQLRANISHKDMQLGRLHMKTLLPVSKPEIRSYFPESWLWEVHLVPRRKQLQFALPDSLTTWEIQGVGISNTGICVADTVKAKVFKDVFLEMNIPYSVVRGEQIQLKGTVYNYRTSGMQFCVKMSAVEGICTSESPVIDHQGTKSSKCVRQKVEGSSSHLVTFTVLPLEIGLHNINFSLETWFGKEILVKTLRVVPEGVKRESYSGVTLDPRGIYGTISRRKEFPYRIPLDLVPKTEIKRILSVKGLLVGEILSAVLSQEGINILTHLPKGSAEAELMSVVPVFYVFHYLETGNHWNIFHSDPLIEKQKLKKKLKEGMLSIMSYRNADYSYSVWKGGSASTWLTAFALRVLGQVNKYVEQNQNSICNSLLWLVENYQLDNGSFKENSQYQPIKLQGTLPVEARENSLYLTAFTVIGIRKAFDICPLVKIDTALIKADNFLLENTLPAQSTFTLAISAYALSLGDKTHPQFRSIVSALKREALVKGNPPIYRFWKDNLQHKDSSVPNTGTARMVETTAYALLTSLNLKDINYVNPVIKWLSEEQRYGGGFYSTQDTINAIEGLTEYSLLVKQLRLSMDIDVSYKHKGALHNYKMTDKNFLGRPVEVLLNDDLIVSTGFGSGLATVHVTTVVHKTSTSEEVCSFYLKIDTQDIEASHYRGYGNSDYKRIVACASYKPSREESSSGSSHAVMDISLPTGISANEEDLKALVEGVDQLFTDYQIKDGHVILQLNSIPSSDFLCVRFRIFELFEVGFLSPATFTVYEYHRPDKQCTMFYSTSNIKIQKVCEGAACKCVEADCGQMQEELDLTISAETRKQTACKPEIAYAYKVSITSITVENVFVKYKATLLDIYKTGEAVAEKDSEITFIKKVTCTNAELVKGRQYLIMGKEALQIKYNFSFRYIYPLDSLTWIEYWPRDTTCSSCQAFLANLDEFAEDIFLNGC

Binder	EC50 [1]	Kd [2]	binding result [3]	EC50 [4]	EC50 [5]	EC50 [6]	EC50 [7]	Kd [8]	koff [8]	kon [8]	Kd [9]	koff [9]	kon [9]	EC50 [10]	EC50 [11]	EC50 [12]	EC50 [13]	EC50 [14]	EC50 [15]	EC50 [16]
B1	0.48 nM	–	–	–	–	–	–	–	–	–	–	–	–	–	–	–	–	–	–	–
B2	–	0.348 nM	no binding	0.22 nM	0.22 nM	0.18 nM	0.2 nM	0.348 nM	0.000308 s⁻¹	890000 M⁻¹ s⁻¹	0.279 nM	0.000317 s⁻¹	1.14e+06 M⁻¹ s⁻¹	0.19 nM	0.2 nM	–	–	–	–	–
B3	–	0.433 nM	no binding	0.17 nM	–	–	–	0.433 nM	0.000445 s⁻¹	1.03e+06 M⁻¹ s⁻¹	0.295 nM	0.000361 s⁻¹	1.23e+06 M⁻¹ s⁻¹	–	–	0.17 nM	0.15 nM	0.14 nM	0.19 nM	0.19 nM
